Assay results from US20240270846A1 (published 2024).
Numbering of substitutions follows the chain as printed. Names may count otherwise. Blank lines part the entries; values can stand above or below the binder they belong to.

Molecular target: T1, CD3 epsilon homodimer protein (UniProt P07766 23-126)
T1 construct: Construct of the homodimer protein is not described; also called CD3 (CD3 epsilon)
Assay: SPR (Biacore T200), CD3 epsilon homodimer on CM4 chip, one-arm antibody as analyte; ratio to unaltered CE115HA000;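 further: surface plasmon resonance run at 25 °C with HBS-EP+ as running buffer, CD3 epsilon homodimer attached by amine coupling, antibody passed over as analyte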

T1 sequence (P07766 23-126): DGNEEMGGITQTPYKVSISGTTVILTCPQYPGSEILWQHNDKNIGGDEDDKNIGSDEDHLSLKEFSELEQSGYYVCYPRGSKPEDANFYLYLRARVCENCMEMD

KD ratio (KD value of CE115HA000/KD value of the altered form): 0.73
B1: CE115HA000 D72E one-arm antibody (antibody, human IgG1, kappa, L234A L235A, N297A, name in Kabat numbering)
heavy: QVQLVESGGGVVQPGRSLRLSCAASGFTFSNAWMHWVRQAPGKGLEWVAQIKAKSNNYATYYAESVKGRFTISREDSKNSLYLQMNSLKTEDTAVYYCRYVHYGAYYGVDAWGQGTTVTVSSASTKGPSVFPLAPSSKSTSGGTAALGCLVKDYFPEPVTVSWNSGALTSGVHTFPAVLQSSGLYSLSSVVTVPSSSLGTQTYICNVNHKPSNTKVDKKVEPKSCDKTHTCPPCPAPEAAGGPSVFLFPPKPKDTLMISRTPEVTCVVVDVSHEDPEVKFNWYVDGVEVHNAKTKPREEQYASTYRVVSVLTVLHQDWLNGKEYKCKVSNKALPAPIEKTISKAKGQPREPQVYTLPPSRCELTKNQVSLSCAVKGFYPSDIAVEWESNGQPENNYKTTPPVLDSDGSFFLVSKLTVDKSRWQQGNVFSCSVMHEALHNHYTQKSLSLSPDYKDDDDK
chain: EPKSSDKTHTCPPCPAPELLGGPSVFLFPPKPKDTLMISRTPEVTCVVVDVSHEDPEVKFNWYVDGVEVHNAKTKPREEQYNSTYRVVSVLTVLHQDWLNGKEYKCKVSNKALPAPIEKTISKAKGQPREPQVCTLPPSRDELTKNQVSLWCLVKGFYPSDIAVEWESNGQPENNYKTTPPVLDSDGSFFLYSKLTVDKSRWQQGNVFSCSVMHEALHNRYTQKSLSLSP
light: DIVMTQSPLSLPVTPGEPASISCRSSQSLVHSNRNTYLHWYQQKPGQAPRLLIYKVSNRFSGVPDRFSGSGSGTDFTLKISRVEAEDVGVYYCGQGTQVPYTFGQGTKLEIKRTVAAPSVFIFPPSDEQLKSGTASVVCLLNNFYPREAKVQWKVDNALQSGNSQESVTEQDSKDSTYSLSSTLTLSKADYEKHKVYACEVTHQGLSSPVTKSFNRGEC
notes: one-arm antibody

KD ratio (KD value of CE115HA000/KD value of the altered form): 0.73
B2: CE115HA000 D73A one-arm antibody (antibody, human IgG1, kappa, L234A L235A, N297A, name in Kabat numbering)
heavy: B1 heavy with E75D, D76A
chain: B1 chain
light: B1 light
notes: one-arm antibody

KD ratio (KD value of CE115HA000/KD value of the altered form): 5.66
B3: CE115HA000 D101R one-arm antibody (antibody, human IgG1, kappa, L234A L235A, N297A, name in Kabat numbering)
heavy: B1 heavy with E75D, D110R
chain: B1 chain
light: B1 light
notes: one-arm antibody

KD ratio (KD value of CE115HA000/KD value of the altered form): 1.94
B4: CE115HA000 D101M one-arm antibody (antibody, human IgG1, kappa, L234A L235A, N297A, name in Kabat numbering)
heavy: B1 heavy with E75D, D110M
chain: B1 chain
light: B1 light
notes: one-arm antibody

KD ratio (KD value of CE115HA000/KD value of the altered form): 0.56
B5: CE115HA000 D73E one-arm antibody (antibody, human IgG1, kappa, L234A L235A, N297A, name in Kabat numbering)
heavy: B1 heavy with E75D, D76E
chain: B1 chain
light: B1 light
notes: one-arm antibody

KD ratio (KD value of CE115HA000/KD value of the altered form): 1.04
B6: CE115HA000 G98Q one-arm antibody (antibody, human IgG1, kappa, L234A L235A, N297A, name in Kabat numbering)
heavy: B1 heavy with E75D, G104Q
chain: B1 chain
light: B1 light
notes: one-arm antibody

KD ratio (KD value of CE115HA000/KD value of the altered form): 3.55
B7: CE115HA000 D101Q one-arm antibody (antibody, human IgG1, kappa, L234A L235A, N297A, name in Kabat numbering)
heavy: B1 heavy with E75D, D110Q
chain: B1 chain
light: B1 light
notes: one-arm antibody

KD ratio (KD value of CE115HA000/KD value of the altered form): 2.28
B8: CE115HA000 D101N one-arm antibody (antibody, human IgG1, kappa, L234A L235A, N297A, name in Kabat numbering)
heavy: B1 heavy with E75D, D110N
chain: B1 chain
light: B1 light
notes: one-arm antibody

KD ratio (KD value of CE115HA000/KD value of the altered form): 1.18
B9: CE115HA000 D101V one-arm antibody (antibody, human IgG1, kappa, L234A L235A, N297A, name in Kabat numbering)
heavy: B1 heavy with E75D, D110V
chain: B1 chain
light: B1 light
notes: one-arm antibody

KD ratio (KD value of CE115HA000/KD value of the altered form): 0.78
B10: CE115HA000 D73G one-arm antibody (antibody, human IgG1, kappa, L234A L235A, N297A, name in Kabat numbering)
heavy: B1 heavy with E75D, D76G
chain: B1 chain
light: B1 light
notes: one-arm antibody

KD ratio (KD value of CE115HA000/KD value of the altered form): 1.17
B11: CE115HA000 D72V one-arm antibody (antibody, human IgG1, kappa, L234A L235A, N297A, name in Kabat numbering)
heavy: B1 heavy with E75V
chain: B1 chain
light: B1 light
notes: one-arm antibody

KD ratio (KD value of CE115HA000/KD value of the altered form): 3.16
B12: CE115HA000 D101G one-arm antibody (antibody, human IgG1, kappa, L234A L235A, N297A, name in Kabat numbering)
heavy: B1 heavy with E75D, D110G
chain: B1 chain
light: B1 light
notes: one-arm antibody

KD ratio (KD value of CE115HA000/KD value of the altered form): 4.37
B13: CE115HA000 D101K one-arm antibody (antibody, human IgG1, kappa, L234A L235A, N297A, name in Kabat numbering)
heavy: B1 heavy with E75D, D110K
chain: B1 chain
light: B1 light
notes: one-arm antibody

KD ratio (KD value of CE115HA000/KD value of the altered form): 0.61
B14: CE115HA000 G65D one-arm antibody (antibody, human IgG1, kappa, L234A L235A, N297A, name in Kabat numbering)
heavy: B1 heavy with G68D, E75D
chain: B1 chain
light: B1 light
notes: one-arm antibody

KD ratio (KD value of CE115HA000/KD value of the altered form): 1.14
B15: CE115HA000 G98H one-arm antibody (antibody, human IgG1, kappa, L234A L235A, N297A, name in Kabat numbering)
heavy: B1 heavy with E75D, G104H
chain: B1 chain
light: B1 light
notes: one-arm antibody

KD ratio (KD value of CE115HA000/KD value of the altered form): 0.98
B16: CE115HA000 G98A one-arm antibody (antibody, human IgG1, kappa, L234A L235A, N297A, name in Kabat numbering)
heavy: B1 heavy with E75D, G104A
chain: B1 chain
light: B1 light
notes: one-arm antibody

KD ratio (KD value of CE115HA000/KD value of the altered form): 0.62
B17: CE115HA000 D101T one-arm antibody (antibody, human IgG1, kappa, L234A L235A, N297A, name in Kabat numbering)
heavy: B1 heavy with E75D, D110T
chain: B1 chain
light: B1 light
notes: one-arm antibody

KD ratio (KD value of CE115HA000/KD value of the altered form): 0.91
B18: CE115HA000 D101S one-arm antibody (antibody, human IgG1, kappa, L234A L235A, N297A, name in Kabat numbering)
heavy: B1 heavy with E75D, D110S
chain: B1 chain
light: B1 light
notes: one-arm antibody

KD ratio (KD value of CE115HA000/KD value of the altered form): 0.7
B19: CE115HA000 D73N one-arm antibody (antibody, human IgG1, kappa, L234A L235A, N297A, name in Kabat numbering)
heavy: B1 heavy with E75D, D76N
chain: B1 chain
light: B1 light
notes: one-arm antibody

KD ratio (KD value of CE115HA000/KD value of the altered form): 0.78
B20: CE115HA000 D73T one-arm antibody (antibody, human IgG1, kappa, L234A L235A, N297A, name in Kabat numbering)
heavy: B1 heavy with E75D, D76T
chain: B1 chain
light: B1 light
notes: one-arm antibody

KD ratio (KD value of CE115HA000/KD value of the altered form): 0.91
B21: CE115HA000 D101H one-arm antibody (antibody, human IgG1, kappa, L234A L235A, N297A, name in Kabat numbering)
heavy: B1 heavy with E75D, D110H
chain: B1 chain
light: B1 light
notes: one-arm antibody

KD ratio (KD value of CE115HA000/KD value of the altered form): 0.61
B22: CE115HA000 G65E one-arm antibody (antibody, human IgG1, kappa, L234A L235A, N297A, name in Kabat numbering)
heavy: B1 heavy with G68E, E75D
chain: B1 chain
light: B1 light
notes: one-arm antibody

KD ratio (KD value of CE115HA000/KD value of the altered form): 0.97
B23: CE115HA000 D101Y one-arm antibody (antibody, human IgG1, kappa, L234A L235A, N297A, name in Kabat numbering)
heavy: B1 heavy with E75D, D110Y
chain: B1 chain
light: B1 light
notes: one-arm antibody

KD ratio (KD value of CE115HA000/KD value of the altered form): 0.88
B24: CE115HA000 G98P one-arm antibody (antibody, human IgG1, kappa, L234A L235A, N297A, name in Kabat numbering)
heavy: B1 heavy with E75D, G104P
chain: B1 chain
light: B1 light
notes: one-arm antibody

KD ratio (KD value of CE115HA000/KD value of the altered form): 0.73
B25: CE115HA000 D101F one-arm antibody (antibody, human IgG1, kappa, L234A L235A, N297A, name in Kabat numbering)
heavy: B1 heavy with E75D, D110F
chain: B1 chain
light: B1 light
notes: one-arm antibody

KD ratio (KD value of CE115HA000/KD value of the altered form): 1.73
B26: CE115HA000 D101I one-arm antibody (antibody, human IgG1, kappa, L234A L235A, N297A, name in Kabat numbering)
heavy: B1 heavy with E75D, D110I
chain: B1 chain
light: B1 light
notes: one-arm antibody

KD ratio (KD value of CE115HA000/KD value of the altered form): 43.4
B27: CE115HA000 D101P one-arm antibody (antibody, human IgG1, kappa, L234A L235A, N297A, name in Kabat numbering)
heavy: B1 heavy with E75D, D110P
chain: B1 chain
light: B1 light
notes: one-arm antibody

KD ratio (KD value of CE115HA000/KD value of the altered form): 0.71
B28: CE115HA000 D101L one-arm antibody (antibody, human IgG1, kappa, L234A L235A, N297A, name in Kabat numbering)
heavy: B1 heavy with E75D, D110L
chain: B1 chain
light: B1 light
notes: one-arm antibody

KD ratio (KD value of CE115HA000/KD value of the altered form): 2.36
B29: CE115HA000 G98D one-arm antibody (antibody, human IgG1, kappa, L234A L235A, N297A, name in Kabat numbering)
heavy: B1 heavy with E75D, G104D
chain: B1 chain
light: B1 light
notes: one-arm antibody

KD ratio (KD value of CE115HA000/KD value of the altered form): 0.74
B30: CE115HA000 D73K one-arm antibody (antibody, human IgG1, kappa, L234A L235A, N297A, name in Kabat numbering)
heavy: B1 heavy with E75D, D76K
chain: B1 chain
light: B1 light
notes: one-arm antibody

KD ratio (KD value of CE115HA000/KD value of the altered form): 4.85
B31: CE115HA000 G98K one-arm antibody (antibody, human IgG1, kappa, L234A L235A, N297A, name in Kabat numbering)
heavy: B1 heavy with E75D, G104K
chain: B1 chain
light: B1 light
notes: one-arm antibody

KD ratio (KD value of CE115HA000/KD value of the altered form): 0.79
B32: CE115HA000 D73R one-arm antibody (antibody, human IgG1, kappa, L234A L235A, N297A, name in Kabat numbering)
heavy: B1 heavy with E75D, D76R
chain: B1 chain
light: B1 light
notes: one-arm antibody
